Measured values published in US11110182B2, “Multifunctional RNA nanoparticles and methods for treating cancer and therapeutic resistant cancer” (University of Cincinnati, priority 2016, dated 2021).

Test system: BT474 cells
Test: In vitro mammosphere culture assay, BT474 cells
Type: cell-based, human
Experimental: FIG. 4A) BT474 cells were treated with pRNA nanoparticles in combination with vehicle or 1 μM 4-hydroxy-tamoxifen (4-OHT) as indicated for 48 h, and assayed for cell viability by MTT assay. FIG. 4B) Cells were treated as above and the migration and FIG. 4C) invasion capabilities were examined. FIG. 4D) Cells were treated as above and assayed for in vitro mammosphere formation. FIG. 4E) The number of mammospheres was counted, and FIG. 4F) the mammosphere size was calculated. Scale bar: 10 μm.
Migration and metastasis assay. The 8-μm-pore-size polycarbonate membrane, which separates the two chambers of a 6.5-mm Transwell (Costar), was coated with or without 1:8 DMEM-diluted Matrigel (Corning). Transwell assay was performed as previously described.^57 Briefly, BT474 cells were treated with pRNAs alone or together with 4-hydroxy-tamoxifen (4-OHT) for 48 h and starved with serum-free DMEM containing 0.2% BSA overnight. On the next day, cells were collected and 2×10^5 cells were seeded to the upper chamber of Transwell. The lower chamber was filled with 600 μL DMEM medium containing 10% FBS. After incubation at 37° C. for 24 h, cells on the membranes were fixed and stained with 0.1% crystal violet in 20% ethanol solution. Cells at top side of membranes were removed completely, and cells at the bottom side were examined with an Olympus SZX12 microscope and counted. • Mammosphere culture and breast cancer stem cell analyses. BT474 cells were treated with pRNAs for 48 h. Then, cells were suspended in DMEM/F12 medium supplemented with 1×B27 (Thermo Fisher), 20 ng/mL bFGF and 20 ng/mL EGF (R&D), and added into 24-well ultralow attachment plates. After treatment with or without 1 μM 4-OHT for 7 days, mammosphere formation was recorded using an Axiovert S100 TV inverted microscope (Zeiss). Xenograft tumor tissues were cut into small pieces and digested with trypsin and collagenase at 37° C. for 1 h, and tumor cells were collected and rinsed with pre-cold PBS. All cells were stained with FITC-conjugated anti-CD44 antibody and PE-conjugated anti-CD24 antibody (BD Pharmingen) in the dark on ice for 30 min. After resuspension with 0.5 mL PBS buffer, CD44^+/CD24^−/low cell population was analyzed by flow cytometry. • Orthotopic xenograft breast tumor mouse model, in vivo imaging and anti-tumor therapy. […] The tumor volume was monitored every 3 days, and tumor size was calculated using the formula: volume=0.5×(width)^2×(length). […] After the tumor weights were recorded, part of the tumor tissues were digested with trypsin and collagenase, lysed for extraction of total proteins and RNAs, or fixed in 10% neutral buffered formalin along with organ tissues, respectively, for further western blot, real-time PCR and IHC studies, etc. […]

[1] = BT474, in combination with tamoxifen (1 μM 4-OHT, 7 days)

B1: pRNA-HER2apt-siMED1: 3-WJ pRNA nanoparticle bearing a HER2-targeting RNA aptamer and two different MED1 siRNAs; strands p1 SEQ ID NO: 3, p2 SEQ ID NO: 4 (nucleic acid)
chain 1: GGACAGUGAAAGUGAGUCAAAGGAUCAAUCAUGGCCAAAGAUGUUACUUUGAGAGCCUU
chain 2: GGCUCUCAAAGUAACAUCUAAGGCCAUGUGUAUGUGGGGGGAGGACGAUGCGGUCUGCUGUGCUUGAUAUGCCCCAGACGACUCGCCCCCCACAUACUUUGUUGAUCCAAUGACUCACUUUCACUGUCCUU
modifications: 2'-F modification; third strand may lack entry; pRNA-HER2apt-siMED1, p1; pRNA-HER2apt-siMED1, p2
greatly reduced: number of mammosphere formation [1] | size of mammospheres [1] | number of mammosphere formation (BT474, nanoparticles alone) | size of mammospheres (BT474, nanoparticles alone)
